From the DeepSol protein solubility set

Test: soluble on expression in E. coli; label from the status in PepcDB or PDB records

Sequence | soluble on expression in E. coli
MDKKANSNQNQEQKRETSDAVDRAAKAGLFNRIYVTVGQKVGIVELTKLEPRFERNIEKLTTYHNIIYNMVNAIELQVQVDPKAIVKNQVLCDPDESPWELLGGWINYMGTYHFNGPQSKILDAYSIACGKIGQKERQLQKRTRSHCIKKMRMYTADESVELNNHVAHLKDLLIAIDDSRHQLKSSRTTKEVKAKGEIYRKNIQAFNCTANEVQARLDEVPMIVPHHENELLKFSREVSIFNNSVENLLKEVVFRLGYGKRNDKPSTRAVLK | not soluble
MGSDKIHHHHHHMGDKVLKIGSVHQCNCCMGSKTLHPLVSVIDLSKADLSSHTDFKFGFYTILLSECKCEAYRYGHQYYDFSDGTLLCLTPGESISMKDSDNTRPSKGWILAFHPDLICGTALGANIRDYTFFSYRPEEALHVSLREKQVILELLDKINEELQRCIDCYSQKIISKYIELLLDYCERFYERQFITRNEANKKIIERFDRLLDDHFNTIQSQSSDLPTIEECVRVLRLSPAYFNDLLEYETGKSYKEYLQFKRFEIAKEWLINTDKTLSQIAQELGFRNPQYFSRLFKKITGCLPNDFKMPN | not soluble
MGSDKIHHHHHHMIISASRRTDIPAFYSQWFFNRIKEGYVLVPNPFNPKMISKVSLHPAVIDCIVFWTKNPAPMIDKLDHLQDYKYYFQFTLNPYGEKLENNLPSVNKRIDIFKRLSDKIGKEKVIWRYDPILTNEEYDVSFHKEAFAQIAYGLKDHTEKCMLGFIDHYQHIRTAVGQFNIQPLRKEEIEEIAVSFRNTINEYPAIQLDTCTSKVDLRHLGIPAGLCIDKELIERITGYPLLAKKDKNQRNVCNCIESIDIGTYESCLNGCIYCYAIKGNYNSVEYNTKKHDRNSPLLIGHPAEDDVVKEREMKSLRNNQYSLF | not soluble
MGHHHHHHSHMLSHFETNSALLEQLSELQGSTEPFLTEHPHMAAEHTVNWLTIAALSSAIDKNEEKLAALSEKCVVFQLFLASATGQKQFFKKFEVSENLDEVKAFKSRMRSRAQAKGEKPEKINLNQGTVDSRQFLEELKQLENLKKVRFIGKFVRKLILIVKFKFYE | not soluble
MGSDKIHHHHHHMPLFTEAPKSLCILRLSAVGDVCHALAVVQHIQEYYPQTEMTWIVGKTEMGLLSSIPNITLIPYDKKTGWKGVLSLWKQLKNKQFDALLNMQTAFRASILSLGIKAKFKIGFGEKRSREGQWLFVNRRIRDPFSPHVLDGFMAFAEYIGVPKAEPKWELAISQDDYKFADQFIDFSRKNLLISPCSSKAEKDWLIEGYAEVANIAHQHNINVIFCSSPAKRELEIVEKITALCHFTPTNIAGKTNLKQLTALISKVDLVLSPDSGPAHIATTQGTPVIGLYAYHNPLRTAPYNNLDNVVSVYEENAQKEFGKPSSELPWATKLKGKNLMTEIQVEPVIGQMKKLGLF | not soluble
MGSDKIHHHHHHMRIILYLGKGGVGKTTVSASTATAIARSGKRVLIMSTDVAHSLADAFGVELSSTPVEVEKNLFAMEVNILAEIRENWTELYSYFSSILMHDGTNEIVAEELAIVPGMEEMISLRYIWKAAKSGKYDAVVVDAAPTGETMRLLGMPESYGWYSEKIGGWHSKAIGFAAPLLSRFMPKKNIFKLMPEVNEHMKELHGMLQDKSITTFRVVLNPENMVIKEALRVQTYLNLFGYKLDAAVVNKVLPSNSSDPYLQALIDQQAKYLRVIDNCFYPVPIFRAMQSSKEVISTDRLYDLSQELFSGRNPMEVLYSNDKTQTLEKINGKYVLSLYLPNVEVDKLAVNIKGDELLVDINNFRKSIVLPNVLVGRKTEGADFEQGTLNITFAN | not soluble
MVVSIGVFDGVHIGHQKVLRTMKEIAFFRKDDSLIYTISYPPEYFLPDFPGLLMTVESRVEMLSRYARTVVLDFFRIKDLTPEGFVERYLSGVSAVVVGRDFRFGKNASGNASFLRKKGVEVYEIEDVVVQGKRVSSSLIRNLVQEGRVEEIPAYLGRYFEIEGIVHKDREFGRKLGFPTANIDRGNEKLVDLKRGVYLVRVHLPDGKKKFGVMNVGFRPTVGDARNVKYEVYILDFEGDLYGQRLKLEVLKFMRDEKKFDSIEELKAAIDQDVKSARNMIDDIINSKFEKEG | soluble
MNIGVIILAAGEGKRFGGDKLLAKIDNTPIIMRTIRIYGDLEKIIIVGKYVNEMLPLLMDQIVIYNPFWNEGISTSLKLGLRFFKDYDAVLVALGDMPFVTKEDVNKIINTFKPNCKAVIPTHKGERGNPVLISKSLFNEIEKLRGDVGARVILNKIKIEELCFIECSEGVLIDIDKKEDLMRLRDFHPLEHHHHHH | soluble
REINGATRWIPLGPLNFQPTELFKLAVILYLASLFTRREEVLRSMESLGWQSIWRGTANLIMSATNPQARRETLEMYGRFR | not soluble
MSYLIRVQIPDEPGSLGRVAEAVGLIGGNISSVDVVEAFSNGTVTDDMVVELPAGTMADELITAAHEVEGVEVDSIRPFSGRVDRRGQ | soluble
MTGKILVIGSTGTIGTPLVKALVARGESVKAASRSGKPTNGAEGVRFDYTDHATFADAFDGVDRLFLMLAGGRLDTIDALTPVVEEAARRKVKIVFLSVLGVDADDSIPYRQIELKIIASGTPYVILRPNWFADNFHSYWKAGIEHGQIAVPGGEGKSSFIDVRDIADSAAAALTSDAFNGKAFNLTGPQAFGYAEAAALISQAIGKPVSYSAVSDDVFIGILTGAGVPQDYASFLASIFYPVREGWTAVVTGDAETLTGHAPRSLETYIADNLDRLKG | not soluble
DGQLTNLPGGIDEYLKRREALAAQNQSGVVNLGGNNEAASAPVPEKKLSSQEQREITKQMNALERKMGKLDPKIAKINEEMAAAAQRVDTAELTRLDAELNELTAQREGLEMEWMDLGERLES | soluble
GSPLPAAGFKKQQRKFQYGNYCKYYGYRNPSCEDGRLRVLKPEWFRGRDVLDLGCNVGHLTLSIACKWGPSRMVGLDIDSRLIHSARQNIRHYLSEELRLPPQTLEGDPGAEGEEGTTTVRKRSCFPASLTASRGPIAAPQVPLDGADTSVFPNNVVFVTGNYVLDRDDLVEAQTPEYDVVLCLSLTKWVHLNWGDEGLKRMFRRIYRHLRPGGILVLEPQPWSSYGKRKTLTETIYKNYYRIQLKPEQFSSYLTSPDVGFSSYELVATPHNTSKGFQRPVYLFHKARSPSH | soluble
MGSDKIHHHHHHMKDINMTVEKGQVAGILGITGCGKTTLLKLLYNGLKNGDRRLIWKGGNYVDAIGRARPNAVYVPQSAPDSLDPVYSVIDQIRKVMQARSVDFDQDLLEKIMSEIGRSPDMLKKKPQALSQGERHIAVVIMALMIRPSLIMMDEPTTSLDAIETLDLLGIIRRFSVQYGISFIISGTSPEVITYASDFVHVMYCGTFVESSQTEDLISNPLHPYTRMIMKMRPSIRTKDLVLDRFIYDCNDYGCPFLNYCEYARDECRSQVSIRRYNDRAGQVRSLAEIMLSAKHVYKTYLEKVSIFKWHENKVIEDFSYDFLSGTRYGIIGVSGSGKTTLASILAGYDRPDSGSIIYSKHPSDGSSIRVRNVFQDTYRFLNPVNTLEWYEKNISAISPDPKLIDKILDAVGLPLERFGSLYIDQLSGGQRQRLAFAMVLSQLPDVLILDEPFSMIDPPNAMVLFSLIRKYLDKSTVIYIDHNIDRVAYLCDHIIAFDKGRIVEEDDVKKIFETQKTEYVEKLIWASEKISSRMKRQP | not soluble
MQTSPLLTQLMEALRCLPGVGPKSAQRMAFTLLQRDRSGGMRLAQALTRAMSEIGHCADCRTFTEQDVCNICSNPRRQENGQICVVESPADIYAIEQTGQFSGRYFVLMGHLSPLDGIGPDDIGLDRLEQRLASEKISELILATNPTVEGEATANYIAELCAEAGVEASRIAHGVPVGGELEMVDGTTLSHSLAGRHKIIF | not soluble
MAKGSSDKDNGYGNIRTSTSLSICCQDSHLTTPIAPIAPELYSLKVPKDYTPETTSTMRRSLESRLAWLGRQSYVFRSLKQLETVTHNATIRTFFWKDGSVSSSTGGNDGFWIKDELHAGA | not soluble
MSHPVVSKEEWLAARRDLLVKEKELTRARDRLNEARRALPWEEVTKDYIFDAPSGPRSLQELFGDCSQLIVYHFMLAPDWEEGCVGCSFFADHVDGALVHLRHGDAGFVAVSRAPLEKIEGYKNRMGWKFPWVSAEGSDFNYDYQASFRDEDVEKGEITYNYRDMAPFGDLKDLHGISVFAKGEDGKIYHTYSTYARGAEQTLGTLMLLDLVPKGRNEDEVMDWVRRHDQYEDAPKAASCCH | not soluble
DQAGKSPNAVRYHGGDEIILQGFHWNVVREAPNDWYNILRQQAATIAADGFSAIWMPVPWRDFSSWSDGSKSGGGEGYFWHDFNKNGRYGSDAQLRQAASALGGAGVKVLYDVVPNHMNRGYPDKEINLPAGQGFWRNDCADPGNYPNDCDDGDRFIGGDADLNTGHPQVYGMFRDEFTNLRSQYGAGGFRFDFVRGYAPERVNSWMTDSADNSFCVGELWKGPSEYPNWDWRNTASWQQIIKDWSDRAKCPVFDFALKERMQNGSIADWKHGLNGNPDPRWREVAVTFVDNHDTGYSPGQNGGQHHWALQDGLIRQAYAYILTSPGTPVVYWDHMYDWGYGDFIRQLIQVRRAAGVRADSAISFHSGYSGLVATVSGSQQTLVVALNSDLGNPGQVASGSFSEAVNASNGQVRVWRSGTGSGGGEPGALVSVSFRCDNGATQMGDSVYAVGNVSQLGNWSPAAALRLTDTSGYPTWKGSIALPAGQNEEWKCLIRNEANATQVRQWQGGANNSLTPSEGATTVGRL | soluble
SHSLGWIFGMPCNQRSSTKASCEEVFDPTEESYLNIETSL | soluble
MAETVESSLAKSHIEGSFTNVWKDDKTLDWYANYEGILWKATGVVVITGDETQVYAIWVPVGLAIPENEGGGSEGGGSEGGGSEGGGTKPPEYGDTPIPGYIYINPLDGTYPPGTEQNPANPNPSLEESHPLNTFMFQGNRFRNRQGALTVYTGTVTQGTDPVKTYYQYTPVSSKAMYDAYWNGKFRDVAFHSGFNEDPLVAEYQGQLSYLPQPPVNAPSGHHHHHH | soluble
SYIDIPPEGSETKNRHNANNPSDVLVIENKHLTKEWPSGGQMMVNNLTAKYTSDGRAVLQDLSFSVNAGQRVGLLGRTGAGKSTLLSALLRLLSTEGEIQIDGISWNSVSLQKWRKAFGVIPQKVFVFSGTFRKNLDPYEQWSDEEIWKVTEEVGLKSMIEQFPDKLNFVLVDGGYILSNGHKQLMCLARSILSKAKILLLDEPTAHLDPVTFQIIRKTLKHTFSNCTVILSEHRVEALLECQQFLVIEGCSVKQFDALQKLLTEASLFKQVFGHLDRAKLFTAHRRNSSKRKTRPKISALQ | not soluble
MGSDKIHHHHHHMENVVPPFKVDVAGTFLLPAALREAREQYRNEQISLLTLRAVEDAEIRNLVDRLKAEGLKVVTDGRFRSDAWPLDFMCGLDGIRFRDDRKTSVELTGRIDVHHHPVLDDFVFLTGVTGGDVIAKQVLPAPSRLLAELMKDANRTELDSVYPDREILLVDLAQTYQKLIMELYRSGCRYLQLDDATRTVTDNAIRVNNMALENLPADLFIAFHSPTEMLFSLQGIHAFFLDYDSECCGKNRLLWFIREKQSVFGFVLSHYPVEEELEELRAKIDQIIRYIPSHRFSLCIPNAEVLPSESYEAAEEKQWHTLKMAEMVAGELWPEEG | not soluble
MGSDKIHHHHHHMNQRMKSHFQYSTLENIPKAFDILKDPPKKLYCVGDTKLLDTPLKVAIIGTRRPTPYSKQHTITLARELAKNGAVIVSGGALGVDIIAQENALPKTIMLSPCSLDFIYPTNNHKVIQEIAQNGLILSEYEKDFMPIKGSFLARNRLVIALSDVVIIPQADLKSGSMSSARLAQKYQKPLFVLPQRLNESDGTNELLEKGQAQGIFNIQNFINTLLKDYHLKEMPEMEDEFLEYCAKNPSYEEAYLKFGDKLLEYELLGKIKRINHIVVLA | not soluble
MPDYLVVLQAAWIVRKARSVEDAMNIAVAEAGKKLNPDLDFVKIDVGDTACPKCNSPLKAVFMVAGVALVGLIFEMKVFNAKSPEHAAKIAKYEIGKRMPRIPLEVIEVAEIE | not soluble
